Data taken from patent US8309097B2, “C-type lectin binding molecules, identification and uses thereof” (Vereniging voor Christelijk Wetenschappelijk Onderwijs, priority 2002, dated 2012).

Legend:
[1] = target: T1, DC-SIGN-Fc (Homo sapiens, UniProt Q9NNX6); test: Soluble DC-SIGN-Fc adhesion assay (Fc ELISA); settings: ELISA, ligand coated
T1 sequence (Q9NNX6 64-404): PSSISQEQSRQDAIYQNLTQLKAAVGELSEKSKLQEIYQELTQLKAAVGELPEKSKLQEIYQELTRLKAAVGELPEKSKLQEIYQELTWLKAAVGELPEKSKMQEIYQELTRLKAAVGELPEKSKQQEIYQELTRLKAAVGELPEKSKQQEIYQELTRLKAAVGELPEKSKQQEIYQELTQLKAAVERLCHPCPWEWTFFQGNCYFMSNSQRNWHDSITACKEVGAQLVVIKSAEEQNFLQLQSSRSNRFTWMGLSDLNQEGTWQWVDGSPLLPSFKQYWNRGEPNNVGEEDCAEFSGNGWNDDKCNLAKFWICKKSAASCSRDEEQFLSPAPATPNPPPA

[2] = target: T1, DC-SIGN-Fc; test: Immunoprecipitation and detection with DC-SIGN-Fc; assay type: binding
Excerpt: FIG. 59. […] Cell-surface proteins are biotinylated and PMNs are lysed. Lane 1. negative control using ICAM-3 Fc to capture by IP proteins. Detection is peroxidase-labeled streptavidin. Lane 2. DC-SIGN-Fc is used to capture ligands biotinylated ligands from lysate; two protein bands are visible, the upper band consists of CD11b and CD66a, whereas the lower consists of CD18. Lane 3. Negative control; no bands are immune precipitated with anti-DC-SIGN antibodies. Lane 4, IP with antibodies against CD66acd; a faint band is visible containing CD66a. Lane 5, IP of CD11b; two bands are visible; the upper band is […] and the lower band is CD18m, which is co-immuneprecipitated with […]. Lane 6. IP with DC-SIGN ligands and detection with anti-CD66acd; CD66a is captured by DC-SIGN Fc. Lane 7. IP with DC-SIGN ligands and detection with anti-CD11b; CD11b is captured by DC-SIGN Fc. Lane 8. Negative control, IP with anti-DC-SIGN antibodies and detection with DC-SIGN-Fc. Lane 9. IP with anti-CD66acd and detection with DC-SIGN Fc; CD66a is bound by DC-SIGN on blot. Lane 10. IP with anti-CD11a and detection with DC-SIGN Fc; CD11a is bound by DC-SIGN on blot.
Immunoprecipitation. […]

[3] = target: T2, DC-SIGN on immature monocyte derived DC (Homo sapiens, UniProt Q9NNX6); test: Fluorescent bead adhesion assay, immature DC; assay type: cell-based
T2 construct: Immature DC were cultured from monocytes in the presence of IL-4 and GM-CSF; endogenous in cells; host or cells: immature monocyte-derived dendritic cells
T2 sequence (Q9NNX6 1-404): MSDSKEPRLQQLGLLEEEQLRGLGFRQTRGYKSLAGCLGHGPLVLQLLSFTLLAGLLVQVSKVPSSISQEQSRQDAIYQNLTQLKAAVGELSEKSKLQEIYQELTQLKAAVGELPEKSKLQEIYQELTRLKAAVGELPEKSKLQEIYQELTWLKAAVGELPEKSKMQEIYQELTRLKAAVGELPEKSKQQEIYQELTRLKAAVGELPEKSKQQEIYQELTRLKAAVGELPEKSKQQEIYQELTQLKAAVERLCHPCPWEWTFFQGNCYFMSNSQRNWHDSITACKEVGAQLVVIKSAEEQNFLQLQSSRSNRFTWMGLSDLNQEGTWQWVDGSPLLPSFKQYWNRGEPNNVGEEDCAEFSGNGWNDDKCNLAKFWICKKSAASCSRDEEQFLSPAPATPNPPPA

[4] = target: T3, DC-SIGN expressed by K562 transfectants (Homo sapiens, UniProt Q9NNX6); assay type: cell-based
T3 construct: expressed in transfected cells; host or cells: K562
T3 sequence (Q9NNX6 1-404): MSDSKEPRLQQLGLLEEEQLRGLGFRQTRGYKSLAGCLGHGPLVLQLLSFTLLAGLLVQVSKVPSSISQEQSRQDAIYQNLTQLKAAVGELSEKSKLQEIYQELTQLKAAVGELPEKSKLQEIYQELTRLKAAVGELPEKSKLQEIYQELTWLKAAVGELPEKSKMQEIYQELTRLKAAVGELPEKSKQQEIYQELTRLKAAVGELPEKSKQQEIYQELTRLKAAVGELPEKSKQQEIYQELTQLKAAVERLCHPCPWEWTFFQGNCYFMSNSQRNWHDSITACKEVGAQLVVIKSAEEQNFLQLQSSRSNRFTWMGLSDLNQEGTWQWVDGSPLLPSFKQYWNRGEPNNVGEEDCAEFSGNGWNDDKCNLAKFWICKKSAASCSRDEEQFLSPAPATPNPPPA

B1: CD66e: tumor antigen CEA from SW948 tumor cell lysate (protein, UniProt P06731 35-685, looked up)
Cell adhesion molecule CEACAM5: KLTIESTPFNVAEGKEVLLLVHNLPQHLFGYSWYKGERVDGNRQIIGYVIGTQQATPGPAYSGREIIYPNASLLIQNIIQNDTGFYTLHVIKSDLVNEEATGQFRVYPELPKPSISSNNSKPVEDKDAVAFTCEPETQDATYLWWVNNQSLPVSPRLQLSNGNRTLTLFNVTRNDTASYKCETQNPVSARRSDSVILNVLYGPDAPTISPLNTSYRSGENLNLSCHAASNPPAQYSWFVNGTFQQSTQELFIPNITVNNSGSYTCQAHNSDTGLNRTTVTTITVYAEPPKPFITSNNSNPVEDEDAVALTCEPEIQNTTYLWWVNNQSLPVSPRLQLSNDNRTLTLLSVTRNDVGPYECGIQNELSVDHSDPVILNVLYGPDDPTISPSYTYYRPGVNLSLSCHAASNPPAQYSWLIDGNIQQHTQELFISNITEKNSGLYTCQANNSASGHSRTTVKTITVSAELPKPSISSNNSKPVEDKDAVAFTCEPEAQNTTYLWWVNGQSLPVSPRLQLSNGNRTLTLFNVTRNDARAYVCGIQNSVSANRSDPVTLDVLYGPDTPIISPPDSSYLSGANLNLSCHSASNPSPQYSWRINGIPQQHTQVLFIAKITPNNNGTYACFVSNLATGRNNSIVKSITVSASGTSPGLSA
[1]
  binding of DC-SIGN-Fc to coated ligand: bound
[2]
  binding of DC-SIGN-Fc to immunoprecipitated ligand: binds
[2]; immunoprecipitation
  binding of DC-SIGN-Fc after α-1,3,4 Fucosidase treatment of the ligand: abrogated

B2: RNAseB: control inhibitor in DC adhesion assay (protein, UniProt P61823 27-150, looked up)
Ribonuclease pancreatic: KETAAAKFERQHMDSSTSAASSSNYCNQMMKSRNLTKDRCKPVNTFVHESLADVQAVCSQKNVACKNGQTNCYQSYSTMSITDCRETGSSKYPNCAYKTTQANKHIIVACEGNPYVPVHFDASV
modifications: glycoform B
[3]
  inhibition of HIV-1 gp120 adhesion to DC: does not block
[3]; inhibitors 20 μg/ml
  inhibition of ICAM-3 adhesion to DC: does not block

B3: CEACAM1: native CEACAM1 (CD66) from PMN (protein, UniProt P13688 35-526, looked up)
Cell adhesion molecule CEACAM1: QLTTESMPFNVAEGKEVLLLVHNLPQQLFGYSWYKGERVDGNRQIVGYAIGTQQATPGPANSGRETIYPNASLLIQNVTQNDTGFYTLQVIKSDLVNEEATGQFHVYPELPKPSISSNNSNPVEDKDAVAFTCEPETQDTTYLWWINNQSLPVSPRLQLSNGNRTLTLLSVTRNDTGPYECEIQNPVSANRSDPVTLNVTYGPDTPTISPSDTYYRPGANLSLSCYAASNPPAQYSWLINGTFQQSTQELFIPNITVNNSGSYTCHANNSVTGCNRTTVKTIIVTELSPVVAKPQIKASKTTVTGDKDSVNLTCSTNDTGISIRWFFKNQSLPSSERMKLSQGNTTLSINPVKREDAGTYWCEVFNPISKNQSDPIMLNVNYNALPQENGLSPGAIAGIVIGVVALVALIAVALACFLHFGKTGRASDQRDLTEHKPSVSNHTQDHSNDPPNKMNEVTYSTLNFEAQQPTQPTSASPSLTATEIIYSEVKKQ
[1]
  binding of DC-SIGN-Fc to coated ligand: is a ligand of DC-SIGN
[4]
  binding of ligand-coated beads to K562 DC-SIGN transfectants: binds
[3]
  binding of ligand-coated beads to immature DC: binds

B4: ICAM-3: cellular ligand of DC-SIGN (protein)
chain: QEFLLRVEPQNPVLSAGGSLFVNCSTDCPSSEKIALETSLSKELVASGMGWAAFNLSNVTGNSRILCSVYCNGSQITGSSNITVYRLPERVELAPLPPWQPVGQNFTLRCQVEDGSPRTSLTVVLLRWEEELSRQPAVEEPAEVTATVLASRDDHGAPFSCRTELDMQPQGLGLFVNTSAPRQLRTFVLPVTPPRLVAPRFLEVETSWPVDCTLDGLFPASEAQVYLALGDQMLNATVMNHGDTLTATATATARADQEGAREIVCNVTLGGERREARENLTVFSFLGPIVNLSEPTAHEGSTVTVSCMAGARVQVTLDGVPAAAPGQPAQLQLNATESDDGRSFFCSATLEVDGEFLHRNSSVQLRVLYGPKIDRATCPQHLKWKDKTRHVLQCQARGNPYPELRCLKEGSSREVPVGIPFFVNVTHNGTYQCQASSSRGKYTLVVVMDIEAGSSH
[1]
  binding of DC-SIGN-Fc to coated ligand: does not recognize
